Measured values as given in patent publication US20230183328A1.

Tests used:
[1] = target: antigen of the Antigen binding ELISA (not named; BAN2401 is described as binding human Aβ protofibrils) (UniProt P05067); assay: antigen binding ELISA; formulation F15, 25°C/1M
CD32a [2] = target: CD32a (UniProt P12318); assay: CD32a binding assay; formulation F15, 25°C 1000 lx/7 D
[3] = target: antigen of the Antigen binding ELISA (not named; BAN2401 is described as binding human Aβ protofibrils) (UniProt P05067); assay: antigen binding ELISA; formulation F17, 25°C/2M
CD32a [4] = target: CD32a (UniProt P12318); assay: CD32a binding assay; formulation F15, 5°C/2M
[5] = target: antigen of the Antigen binding ELISA (not named; BAN2401 is described as binding human Aβ protofibrils) (UniProt P05067); assay: antigen binding ELISA; formulation F0, 5°C/2M
CD32a [6] = target: CD32a (UniProt P12318); assay: CD32a binding assay; formulation F17, initial
CD32a [7] = target: CD32a (UniProt P12318); assay: CD32a binding assay; formulation F13, 5°C/2M
[8] = target: antigen of the Antigen binding ELISA (not named; BAN2401 is described as binding human Aβ protofibrils) (UniProt P05067); assay: antigen binding ELISA; formulation F18, 25°C 1000 lx/7 D
CD32a [9] = target: CD32a (UniProt P12318); assay: CD32a binding assay; formulation F0, 5°C/2M
[10] = target: antigen of the Antigen binding ELISA (not named; BAN2401 is described as binding human Aβ protofibrils) (UniProt P05067); assay: antigen binding ELISA; formulation F17, 25°C/1M
[11] = target: antigen of the Antigen binding ELISA (not named; BAN2401 is described as binding human Aβ protofibrils) (UniProt P05067); assay: antigen binding ELISA; formulation F0, 25°C/2M
CD32a [12] = target: CD32a (UniProt P12318); assay: CD32a binding assay; formulation F15, freeze-thaw 3 cycles
[13] = target: antigen of the Antigen binding ELISA (not named; BAN2401 is described as binding human Aβ protofibrils) (UniProt P05067); assay: antigen binding ELISA; formulation F17, 5°C/2M
[14] = target: antigen of the Antigen binding ELISA (not named; BAN2401 is described as binding human Aβ protofibrils) (UniProt P05067); assay: antigen binding ELISA; formulation F0, 25°C/1M
[15] = target: antigen of the Antigen binding ELISA (not named; BAN2401 is described as binding human Aβ protofibrils) (UniProt P05067); assay: antigen binding ELISA; formulation F15, 5°C/2M
[16] = target: antigen of the Antigen binding ELISA (not named; BAN2401 is described as binding human Aβ protofibrils) (UniProt P05067); assay: antigen binding ELISA; formulation F0, initial
CD32a [17] = target: CD32a (UniProt P12318); assay: CD32a binding assay; formulation F0, 25°C/1M
CD32a [18] = target: CD32a (UniProt P12318); assay: CD32a binding assay; formulation F15, 25°C/1M
CD32a [19] = target: CD32a (UniProt P12318); assay: CD32a binding assay; formulation F17, 25°C/1M
CD32a [20] = target: CD32a (UniProt P12318); assay: CD32a binding assay; formulation F0, initial
CD32a [21] = target: CD32a (UniProt P12318); assay: CD32a binding assay; formulation F15, 25°C/2M
CD32a [22] = target: CD32a (UniProt P12318); assay: CD32a binding assay; formulation F18, 25°C/2M
[23] = target: antigen of the Antigen binding ELISA (not named; BAN2401 is described as binding human Aβ protofibrils) (UniProt P05067); assay: antigen binding ELISA; formulation F15, 25°C 1000 lx/7 D
CD32a [24] = target: CD32a (UniProt P12318); assay: CD32a binding assay; formulation F13, initial
[25] = target: antigen of the Antigen binding ELISA (not named; BAN2401 is described as binding human Aβ protofibrils) (UniProt P05067); assay: antigen binding ELISA; formulation F13, 25°C/2M
CD32a [26] = target: CD32a (UniProt P12318); assay: CD32a binding assay; formulation F17, 5°C/2M
[27] = target: antigen of the Antigen binding ELISA (not named; BAN2401 is described as binding human Aβ protofibrils) (UniProt P05067); assay: antigen binding ELISA; formulation F17, initial
[28] = target: antigen of the Antigen binding ELISA (not named; BAN2401 is described as binding human Aβ protofibrils) (UniProt P05067); assay: antigen binding ELISA; formulation F13, 5°C/2M
[29] = target: antigen of the Antigen binding ELISA (not named; BAN2401 is described as binding human Aβ protofibrils) (UniProt P05067); assay: antigen binding ELISA; formulation F13, 25°C/1M
CD32a [30] = target: CD32a (UniProt P12318); assay: CD32a binding assay; formulation F13, 25°C/2M
[31] = target: antigen of the Antigen binding ELISA (not named; BAN2401 is described as binding human Aβ protofibrils) (UniProt P05067); assay: antigen binding ELISA; formulation F18, 25°C dark/7 D
[32] = target: antigen of the Antigen binding ELISA (not named; BAN2401 is described as binding human Aβ protofibrils) (UniProt P05067); assay: antigen binding ELISA; formulation F18, 5°C/2M
CD32a [33] = target: CD32a (UniProt P12318); assay: CD32a binding assay; formulation F15, 25°C dark/7 D
CD32a [34] = target: CD32a (UniProt P12318); assay: CD32a binding assay; formulation F15, initial
[35] = target: antigen of the Antigen binding ELISA (not named; BAN2401 is described as binding human Aβ protofibrils) (UniProt P05067); assay: antigen binding ELISA; formulation F18, initial
[36] = target: antigen of the Antigen binding ELISA (not named; BAN2401 is described as binding human Aβ protofibrils) (UniProt P05067); assay: antigen binding ELISA; formulation F18, freeze-thaw 3 cycles
CD32a [37] = target: CD32a (UniProt P12318); assay: CD32a binding assay; formulation F13, 25°C/1M
CD32a [38] = target: CD32a (UniProt P12318); assay: CD32a binding assay; formulation F18, 25°C dark/7 D
CD32a [39] = target: CD32a (UniProt P12318); assay: CD32a binding assay; formulation F18, initial
CD32a [40] = target: CD32a (UniProt P12318); assay: CD32a binding assay; formulation F18, freeze-thaw 3 cycles
[41] = target: antigen of the Antigen binding ELISA (not named; BAN2401 is described as binding human Aβ protofibrils) (UniProt P05067); assay: antigen binding ELISA; formulation F18, 25°C/2M
[42] = target: antigen of the Antigen binding ELISA (not named; BAN2401 is described as binding human Aβ protofibrils) (UniProt P05067); assay: antigen binding ELISA; formulation F18, 25°C/1M
CD32a [43] = target: CD32a (UniProt P12318); assay: CD32a binding assay; formulation F18, 25°C 1000 lx/7 D
[44] = target: antigen of the Antigen binding ELISA (not named; BAN2401 is described as binding human Aβ protofibrils) (UniProt P05067); assay: antigen binding ELISA; formulation F15, 25°C dark/7 D
[45] = target: antigen of the Antigen binding ELISA (not named; BAN2401 is described as binding human Aβ protofibrils) (UniProt P05067); assay: antigen binding ELISA; formulation F15, 25°C/2M
CD32a [46] = target: CD32a (UniProt P12318); assay: CD32a binding assay; formulation F0, 25°C/2M
CD32a [47] = target: CD32a (UniProt P12318); assay: CD32a binding assay; formulation F18, 25°C/1M
[48] = target: antigen of the Antigen binding ELISA (not named; BAN2401 is described as binding human Aβ protofibrils) (UniProt P05067); assay: antigen binding ELISA; formulation F13, initial
[49] = target: antigen of the Antigen binding ELISA (not named; BAN2401 is described as binding human Aβ protofibrils) (UniProt P05067); assay: antigen binding ELISA; formulation F15, freeze-thaw 3 cycles
[50] = target: antigen of the Antigen binding ELISA (not named; BAN2401 is described as binding human Aβ protofibrils) (UniProt P05067); assay: antigen binding ELISA; formulation F15, initial
CD32a [51] = target: CD32a (UniProt P12318); assay: CD32a binding assay; formulation F17, 25°C/2M
CD32a [52] = target: CD32a (UniProt P12318); assay: CD32a binding assay; formulation F18, initial; remark: listed apart in the source
CD32a [53] = target: CD32a (UniProt P12318); assay: CD32a binding assay; formulation F0, 25°C/1M; remark: listed apart in the source
CD32a [54] = target: CD32a (UniProt P12318); assay: CD32a binding assay; formulation F18, 5°C/2M

CD32a, sequence (P12318 36-218): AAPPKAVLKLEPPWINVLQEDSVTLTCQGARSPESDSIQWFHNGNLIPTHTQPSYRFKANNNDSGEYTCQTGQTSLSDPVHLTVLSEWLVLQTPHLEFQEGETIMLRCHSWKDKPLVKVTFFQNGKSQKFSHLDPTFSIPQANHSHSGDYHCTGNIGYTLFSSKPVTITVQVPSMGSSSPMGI

- ELISA (Antigen binding ELISA) [1]: 104%
- FcR (Binding assay (CD32a)) (CD32a [2]): 118%
- ELISA (Antigen binding ELISA) [3]: 102%
- FcR (Binding assay (CD32a)) (CD32a [4]): 99%
- ELISA (Antigen binding ELISA) [5]: 103%
- FcR (Binding assay (CD32a)) (CD32a [6]): 117%
- FcR (Binding assay (CD32a)) (CD32a [7]): 100%
- ELISA (Antigen binding ELISA) [8]: 109%
- FcR (Binding assay (CD32a)) (CD32a [9]): 93.8%
- ELISA (Antigen binding ELISA) [10]: 107%
- ELISA (Antigen binding ELISA) [11]: 91.8%
- FcR (Binding assay (CD32a)) (CD32a [12]): 108%
- ELISA (Antigen binding ELISA) [13]: 126%
- ELISA (Antigen binding ELISA) [14]: 103%
- ELISA (Antigen binding ELISA) [15]: 123%
- ELISA (Antigen binding ELISA) [16]: 101%
- FcR (Binding assay (CD32a)) (CD32a [17]): 95.5%
- FcR (Binding assay (CD32a)) (CD32a [18]): 98.3%
- FcR (Binding assay (CD32a)) (CD32a [19]): 104%
- FcR (Binding assay (CD32a)) (CD32a [20]): 91.7%
- FcR (Binding assay (CD32a)) (CD32a [21]): 102%
- FcR (Binding assay (CD32a)) (CD32a [22]): 92.9%
- ELISA (Antigen binding ELISA) [23]: 101%
- FcR (Binding assay (CD32a)) (CD32a [24]): 101%
- ELISA (Antigen binding ELISA) [25]: 107%
- FcR (Binding assay (CD32a)) (CD32a [26]): 103%
- ELISA (Antigen binding ELISA) [27]: 107%
- ELISA (Antigen binding ELISA) [28]: 104%
- ELISA (Antigen binding ELISA) [29]: 104%
- FcR (Binding assay (CD32a)) (CD32a [30]): 102%
- ELISA (Antigen binding ELISA) [31]: 105%
- ELISA (Antigen binding ELISA) [32]: 118%
- FcR (Binding assay (CD32a)) (CD32a [33]): 104%
- FcR (Binding assay (CD32a)) (CD32a [34]): 109%
- ELISA (Antigen binding ELISA) [35]: 108%
- ELISA (Antigen binding ELISA) [36]: 104%
- FcR (Binding assay (CD32a)) (CD32a [37]): 99.4%
- FcR (Binding assay (CD32a)) (CD32a [38]): 105%
- FcR (Binding assay (CD32a)) (CD32a [39]): 92.4%
- FcR (Binding assay (CD32a)) (CD32a [40]): 106%
- ELISA (Antigen binding ELISA) [41]: 97.8%
- ELISA (Antigen binding ELISA) [42]: 97%
- FcR (Binding assay (CD32a)) (CD32a [43]): 109%
- ELISA (Antigen binding ELISA) [44]: 107%
- ELISA (Antigen binding ELISA) [45]: 96.9%
- FcR (Binding assay (CD32a)) (CD32a [46]): 93.5%
- FcR (Binding assay (CD32a)) (CD32a [47]): 91.9%
- ELISA (Antigen binding ELISA) [48]: 109%
- ELISA (Antigen binding ELISA) [49]: 108%
- ELISA (Antigen binding ELISA) [50]: 102%
- FcR (Binding assay (CD32a)) (CD32a [51]): 105%
- FcR (Binding assay (CD32a)) (CD32a [52]): 106%
- FcR (Binding assay (CD32a)) (CD32a [53]): 95.3%
- FcR (Binding assay (CD32a)) (CD32a [54]): 94.7%
Substance: BAN2401 (antibody)
